This note sets out measurements from patent US20170129959A1.

The target in assay [1] is Recombinant hCD127 (Sino Biologicals, reference 10975-H08H) (human) (UniProt P16871). The assay can be described thus: ELISA on immobilised recombinant hCD127. On the technique in general: An ELISA detects its analyte on a solid surface through an enzyme-linked reagent.
The target is the same in assay [2]. The assay can be described thus: ELISA, recombinant hCD127 coated on plastic at 1 µg/ml, antibody titrated; printed as ED 50.
Assay [3] deals with Recombinant CD127 Fc Chimera (10975-H03H, Sino Biological) (human) (UniProt P16871). The assay can be described thus: SPR (Biacore 3000), CD127Fc immobilised on CM5 chip, antibody injected, Bivalent analyte model. Background: In SPR one partner is held on a chip, and binding of the other changes the refractive index at the surface.
Recombinant CD127 Fc Chimera (10975-H03H, Sino Biological) (human), sequence (P16871 21-239 I66T/V138I limits assumed): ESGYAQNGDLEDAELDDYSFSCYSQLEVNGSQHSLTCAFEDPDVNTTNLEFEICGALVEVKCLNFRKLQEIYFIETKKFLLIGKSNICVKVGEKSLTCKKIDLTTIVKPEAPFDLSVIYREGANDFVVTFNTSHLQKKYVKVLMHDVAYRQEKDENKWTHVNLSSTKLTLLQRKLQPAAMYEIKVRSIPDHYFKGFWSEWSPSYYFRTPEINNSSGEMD
In assay [4] the target is Human CD127 (IL-7 receptor alpha chain) expressed on cells (human) (UniProt P16871). Description: cell-based or functional assay.
Human CD127 (IL-7 receptor alpha chain) expressed on cells (human), sequence (P16871 21-459 I66T/V138I): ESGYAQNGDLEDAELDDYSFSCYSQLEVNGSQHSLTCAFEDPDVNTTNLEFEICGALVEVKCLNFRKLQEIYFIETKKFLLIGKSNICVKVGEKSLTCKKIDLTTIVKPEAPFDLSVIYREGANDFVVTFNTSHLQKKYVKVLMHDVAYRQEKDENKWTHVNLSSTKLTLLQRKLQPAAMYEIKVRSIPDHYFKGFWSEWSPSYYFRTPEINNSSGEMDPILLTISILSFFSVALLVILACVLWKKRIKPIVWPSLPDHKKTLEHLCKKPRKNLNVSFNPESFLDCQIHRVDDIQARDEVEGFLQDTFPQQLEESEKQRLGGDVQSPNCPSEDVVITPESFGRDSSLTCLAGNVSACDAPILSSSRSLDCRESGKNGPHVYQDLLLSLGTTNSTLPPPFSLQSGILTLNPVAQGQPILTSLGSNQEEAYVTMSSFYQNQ

Recombinant hCD127 (Sino Biologicals, reference 10975-H08H) (human), sequence (P16871 21-239 I66T/V138I limits assumed): as the sequence (P16871 21-239 I66T/V138I limits assumed) above

B1: MD707-1 (rat anti-human CD127 antibody, previous generation) (antibody, from another filing, V domains shown)
VH: AVHLVESGGGLVQPKESLKISCAASGFTFSNAAMFWVRQAPGKGLEWVARIRTKANNYATYYADSVKGRFTISRDDSKSMVYLQMDNVKTDDTAMYYCIVVVLTTTRDYFDYWGQGVMVTVSS
VL: DIVLTQAPLSVSVTPGESASISCRSSQSLLTVKGITSLYWFLQKPGKSPQLLMYRMSNLASGVPDRFRGSGSETDFTLKISKVETEDVGVYYCAQFLEYPHTFGAGTKLELKR
Consider B1, for which the 50% effective concentration (EC50 (read off the curve)) (in general, the concentration needed to bring the measured effect to its halfway point) in assay [1] is 0.1 µg/mL. Further, the EC50 – broadly, the concentration needed to bring the measured effect to its halfway point – in assay [2] worked out at 0.123 µg/mL. Besides, in assay [3], the Ka worked out at 2.19e+09 M⁻¹; the Kd is 0.456 nM; the koff (commonly the first-order rate constant of dissociation) amounted to 0.000121 s⁻¹; the on-rate (kon) (as a rule, the second-order rate constant of association) was 266000 M⁻¹ s⁻¹.

B2: MD707-13 (anti-human CD127 antibody, WO2013/056984) (antibody, from another filing, V domains shown)
VH: QLKESGPGLVQPSQTLSLTCTVSGLSLPNNNIAWIRQSPGKGLEWMGVIWSNGDTDYNSAIRSRLSISRDSSKSQVFLRMNSLQSEDTAMYFCAREGMTTLDYWGQGVVVTVSS
VL: EIVLTQSPTTMAASPGEKVTITCRASSSVSYMHWFQQKSGSSPKPWIYDSSDLASGVPDRFSGSGSGTSYSLTISSMEAEDAATYYCLQRSSYPRTFGGGTKLELKR
B2 displayed an inhibition of IL-7 induced pSTAT5+ T lymphocytes (% inhibition at 1000 ng/mL) in assay [4] of 50.
